Test results taken from PMC10978931, “Structure and function of Semaphorin-5A glycosaminoglycan interactions” (Nature Communications, 2024).

B1: human Semaphorin-5A TSR3-4, Sema5A_(TSR3-4) (residues 652P-765T) (domain or fragment, UniProt Q13591 652-765, looked up)
chain: PHMFWTGWGPWERCTAQCGGGIQARRRICENGPDCAGCNVEYQSCNTNPCPELKKTTPWTPWTPVNISDNGGHYEQRFRYTCKARLADPNLLEVGRQRIEMRYCSSDGTSGCST
modifications: C-mannosyl tryptophan at W656 and W659; N-glycans reduced to single residues by EndoF1 (crystals)
notes: Semaphorin-5A, human, UniProtKB Q13591, residues 652P-765T (thrombospondin type-1 repeats 3 and 4); The tag was cleaved by HRV 3C protease for crystallization; Inter-protomer disulfides C689-C689' and C733-C733'; source: HEK293T, transfected (with kifunensine for crystallization), purified (Ni-NTA, 3C cleavage, SEC); not shown: 3C-Avi-His6, C-terminal, cleaved
B2: human Semaphorin-5A ectodomain Sema5A_(sema-TSR1-7) (residues 23E-944S) (domain or fragment, UniProt Q13591 23-944, looked up)
chain: EAQGTTQCQRTEHPVISYKEIGPWLREFRAKNAVDFSQLTFDPGQKELVVGARNYLFRLQLEDLSLIQAVEWECDEATKKACYSKGKSKEECQNYIRVLLVGGDRLFTCGTNAFTPVCTNRSLSNLTEIHDQISGMARCPYSPQHNSTALLTAGGELYAATAMDFPGRDPAIYRSLGILPPLRTAQYNSKWLNEPNFVSSYDIGNFTYFFFRENAVEHDCGKTVFSRAARVCKNDIGGRFLLEDTWTTFMKARLNCSRPGEVPFYYNELQSTFFLPELDLIYGIFTTNVNSIAASAVCVFNLSAIAQAFSGPFKYQENSRSAWLPYPNPNPHFQCGTVDQGLYVNLTERNLQDAQKFILMHEVVQPVTTVPSFMEDNSRFSHVAVDVVQGREALVHIIYLATDYGTIKKVRVPLNQTSSSCLLEEIELFPERRREPIRSLQILHSQSVLFVGLREHVVKIPLKRCQFYRTRSTCIGAQDPYCGWDVVMKKCTSLEESLSMTQWEQSISACPTRNLTVDGHFGVWSPWTPCTHTDGSAVGSCLCRTRSCDSPAPQCGGWQCEGPGMEIANCSRNGGWTPWTSWSPCSTTCGIGFQVRQRSCSNPTPRHGGRVCVGQNREERYCNEHLLCPPHMFWTGWGPWERCTAQCGGGIQARRRICENGPDCAGCNVEYQSCNTNPCPELKKTTPWTPWTPVNISDNGGHYEQRFRYTCKARLADPNLLEVGRQRIEMRYCSSDGTSGCSTDGLSGDFLRAGRYSAHTVNGAWSAWTSWSQCSRDCSRGIRNRKRVCNNPEPKYGGMPCLGPSLEYQECNILPCPVDGVWSCWSPWTKCSATCGGGHYMRTRSCSNPAPAYGGDICLGLHTEEALCNTQPCPESWSEWSDWSECEASGVQVRARQCILLFPMGSQCSGNTTESRPCVFDS
notes: Semaphorin-5A, human, UniProtKB Q13591, residues 23E-944S (sema, PSI and TSR1-7 domains); Glycosylated (11 predicted N-glycan sites); also called full-length ectodomain human Sema5A; Sema5A ectodomain; source: HEK293T, transfected, conditioned medium; purified (Ni-NTA, SEC); not shown: His6, C-terminal, kept

Tests used:
[1] = molecular target: the molecule itself; assay: crystal structure; Sema5A_(TSR3-4), four crystal forms (apo, nitrate, sulfate, sucrose octasulfate), sitting drop at 20 °C, 1.56-2.72 Å
[2] = molecular target: the molecule itself; assay: mass photometry; Sema5A_(sema-TSR1-7) alone, 100 nM (half of it at measurement), 100 mM NaCl

Protein	stoichiometry N [1]	stoichiometry N [2]
B1	2	–
B2	–	2
